pKd: −log10 of the molar value.
System: T1, CATH-B1 (mature cathelicidin-B1 peptide) (chicken)
T1 sequence: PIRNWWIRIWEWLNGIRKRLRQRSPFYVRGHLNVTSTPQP
Experiment: ITC
Settings: 75% PBS, 37 °C, dH -65.5 kJ/mol, dS -73.5 J/mol as printed, ITC: 75% PBS (PBS/H2O 3:1 v/v), 200 µM CATH-B1 in syringe titrated in 1 µL injections at 300 s intervals into ODN-2006 (25 nM as printed), pH not stated

Question: With ODN-2006 as the substance, how does the pKd read?
Answer: 7.19

From article PMC7517697
